Experiments:
RBM39-3xFLAG (human) [1] = biological target: RBM39-3xFLAG (human) (UniProt Q14498); assay: anti-FLAG IP of RBM39-3xFLAG from H1155 cells treated with 10 µM indisulam, LC-MS/MS
RBM39-3xFLAG (human) [2] = biological target: RBM39-3xFLAG (human) (UniProt Q14498); assay: anti-FLAG IP of RBM39-3xFLAG from H1155 cells treated with DMSO (no indisulam), LC-MS/MS
DCAF15-3xFLAG (human) = DCAF15-3xFLAG (human) (UniProt Q66K64); assay: pull-down of 100 nM RBM39Δ150 by DCAF15-3xFLAG on anti-FLAG beads with rising indisulam, western blot (FIG. 4C)
Sequence of DCAF15-3xFLAG (human) (Q66K64 whole entry): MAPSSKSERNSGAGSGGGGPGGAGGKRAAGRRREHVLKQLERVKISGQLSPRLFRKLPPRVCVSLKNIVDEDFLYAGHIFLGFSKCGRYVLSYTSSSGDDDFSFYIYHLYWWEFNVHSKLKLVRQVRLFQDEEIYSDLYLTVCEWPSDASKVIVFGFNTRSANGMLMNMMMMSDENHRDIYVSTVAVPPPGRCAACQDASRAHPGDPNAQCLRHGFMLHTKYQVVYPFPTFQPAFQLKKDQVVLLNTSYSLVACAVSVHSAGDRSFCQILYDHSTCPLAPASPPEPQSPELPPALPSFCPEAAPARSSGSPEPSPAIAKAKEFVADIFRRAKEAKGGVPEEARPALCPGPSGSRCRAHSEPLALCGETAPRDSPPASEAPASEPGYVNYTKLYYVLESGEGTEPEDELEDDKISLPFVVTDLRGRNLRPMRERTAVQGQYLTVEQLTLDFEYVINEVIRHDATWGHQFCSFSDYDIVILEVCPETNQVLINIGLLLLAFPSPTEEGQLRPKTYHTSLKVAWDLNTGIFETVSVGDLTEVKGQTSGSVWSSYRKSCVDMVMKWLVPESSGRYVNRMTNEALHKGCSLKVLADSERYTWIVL

Sequence of RBM39-3xFLAG (human) (Q14498 whole entry): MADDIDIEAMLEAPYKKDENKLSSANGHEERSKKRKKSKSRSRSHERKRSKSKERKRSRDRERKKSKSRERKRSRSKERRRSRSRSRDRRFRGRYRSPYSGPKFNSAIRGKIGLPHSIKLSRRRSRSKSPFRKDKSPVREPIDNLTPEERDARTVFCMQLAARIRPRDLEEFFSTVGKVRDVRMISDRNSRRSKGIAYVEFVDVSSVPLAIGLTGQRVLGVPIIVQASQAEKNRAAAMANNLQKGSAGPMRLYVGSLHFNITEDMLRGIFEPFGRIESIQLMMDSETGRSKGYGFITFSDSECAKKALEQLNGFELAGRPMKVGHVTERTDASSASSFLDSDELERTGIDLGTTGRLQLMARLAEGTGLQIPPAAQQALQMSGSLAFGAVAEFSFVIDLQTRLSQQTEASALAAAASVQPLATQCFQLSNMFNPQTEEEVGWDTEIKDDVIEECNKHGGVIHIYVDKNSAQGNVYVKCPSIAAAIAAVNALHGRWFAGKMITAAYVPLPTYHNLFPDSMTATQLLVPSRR

Row | Substance | indisulam total (peptide count) (RBM39-3xFLAG (human) [1]) | indisulam unique (peptide count) (RBM39-3xFLAG (human) [1]) | DMSO total (peptide count) (RBM39-3xFLAG (human) [2]) | DMSO unique (peptide count) (RBM39-3xFLAG (human) [2]) | indisulam concentration at which the complex was apparent (DCAF15-3xFLAG (human))
1 | DDX46 (from UniProt Q7L014 2-1031) | 6 peptides | 6 peptides | 0 peptides | 0 peptides | 
2 | TPI1 (from UniProt P60174 2-249) | 4 peptides | 4 peptides | 0 peptides | 0 peptides | 
3 | ANXA2 (from UniProt P07355 2-339) | 11 peptides | 10 peptides | 1 peptides | 1 peptides | 
4 | DDB1 (from UniProt Q16531 2-1140) | 52 peptides | 46 peptides | 5 peptides | 4 peptides | 
5 | CUL4B (from UniProt Q13620 1-913) | 16 peptides | 15 peptides | 0 peptides | 0 peptides | 
6 | PPM1B (from UniProt O75688 2-479) | 5 peptides | 5 peptides | 0 peptides | 0 peptides | 
7 | DKFZp686J1372 (from UniProt Q5HYB6 1-232) | 4 peptides | 4 peptides | 0 peptides | 0 peptides | 
8 | PSMD11 (from UniProt O00231 2-422) | 5 peptides | 5 peptides | 0 peptides | 0 peptides | 
9 | CUL4A (from UniProt Q13619 1-759) | 11 peptides | 11 peptides | 1 peptides | 1 peptides | 
10 | FUS (from UniProt P35637 1-526) | 6 peptides | 6 peptides | 0 peptides | 0 peptides | 
11 | YWHAB (from UniProt P31946 1-246) | 5 peptides | 4 peptides | 0 peptides | 0 peptides | 
12 | HDX (from UniProt Q7Z353 1-690) | 15 peptides | 14 peptides | 0 peptides | 0 peptides | 
13 | PSMC5 (from UniProt P62195 2-406) | 6 peptides | 6 peptides | 0 peptides | 0 peptides | 
14 | TPM3 (from UniProt P06753 2-285) | 4 peptides | 4 peptides | 0 peptides | 0 peptides | 
15 | RBM39Δ150 (from UniProt Q14498 151-530) |  |  |  |  | 0.1 µM
16 | PDIA3 (from UniProt P30101 25-505) | 4 peptides | 4 peptides | 0 peptides | 0 peptides | 
17 | DDA1 (from UniProt Q9BW61 2-102) | 4 peptides | 4 peptides | 0 peptides | 0 peptides | 
